T1: recombinant human CD123-Fc (human, UniProt P26951 19-305)
T1 construct: not shown: Fc part of CD123-Fc
T1 sequence: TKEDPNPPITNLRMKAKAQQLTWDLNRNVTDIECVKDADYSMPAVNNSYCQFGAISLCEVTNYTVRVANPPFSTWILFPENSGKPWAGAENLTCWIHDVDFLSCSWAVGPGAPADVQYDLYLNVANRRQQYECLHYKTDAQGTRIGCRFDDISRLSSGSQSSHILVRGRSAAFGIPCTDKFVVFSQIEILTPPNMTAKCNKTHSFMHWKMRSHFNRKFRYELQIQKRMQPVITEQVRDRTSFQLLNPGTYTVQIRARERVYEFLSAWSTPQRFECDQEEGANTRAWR


Molecular target: T1, recombinant human CD123-Fc
Test: phage ELISA, A450 target/A450 IgG1-Fc
In short: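 Phage were rescued in 96-well format with VCSM13 helper phage from individual phagemid colonies picked from panning output. Plates were coated with 1.3 microg/ml goat anti-human IgG1-Fc antibody, then 5 nM recombinant human target or IgG1-Fc, then 50 microl phage diluted 5× in ELISA blocking buffer. Binding was detected with HRP-conjugated anti-M13 antibody at 450 nm. The ELISA ratio is target over IgG1-Fc absorbance, averaged across all screened wells holding that clone.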

ELISA_avg	Binder
4.6 ratio	SEQ ID NO 720 (designed binder) MGSWYEFWDRLEAIEERLWALGGSEAELAAFEKEIAAFESELQAYKGKGNPEVEYLRLEAADIRRILQAYRHN
3.2 ratio	SEQ ID NO 716 (designed binder) MGSWYEFDSRLMAIEDRLWALGGSEAELAAFEKEIAAFESELQAYKGKGNPEVEYLRQEAAEIRMILQAYRHN
6.2 ratio	SEQ ID NO 723 (designed binder) MGSWYEFEYRLEAIEDRLWALGGSEAELAAFEKEIAAFESELQAYKGKGNPEVEYLREEAAWIRVWLQAYRHN
6 ratio	SEQ ID NO 726 (designed binder) MGSWYEFEWRLDAIYDRLGALGGSEAELAAFEKEIAAFESELQAYKGKGNPEVEWLREDAAEIRALLQAYRHN
3.4 ratio	SEQ ID NO 717 (designed binder) MGSWYEFEWRLMAIEDRLWALGGSEAELAAFEKEIAAFESELQAYKGKGNPEVEYLRHEAAEIRDVLQAYRHN
11.3 ratio	SEQ ID NO 718 (designed binder) MGSWYEFYNRLDAIEDRLWALGGSEAELAAFEKEIAAFESELQAYKGKGNPEVEYLRQEAADIRGQLQAYRHN
7.6 ratio	SEQ ID NO 715 (designed binder) MGSWWEFEHRLFAIEDRLWALGGSEAELAAFEKEIAAFESELQAYKGKGNPEVEFLRDYAAEIRDYLQAYRHN
5.4 ratio	SEQ ID NO 721 (designed binder) MGSWYEFEERLWAIEERLYALGGSEAELAAFEKEIAAFESELQAYKGKGNPEVEYLRYEAAWIRDFLQAYRHN
6.1 ratio	SEQ ID NO 722 (designed binder) MGSWYEFENRLEAIEERLWALGGSEAELAAFEKEIAAFESELQAYKGKGNPEVEMLREEAAFIRDWLQAYRHN
4.8 ratio	SEQ ID NO 724 (designed binder) MGSWYEFENRLGAIGDRLWALGGSEAELAAFEKEIAAFESELQAYKGKGNPEVEWLRDEAAYIRAVLQAYRHN
4.2 ratio	SEQ ID NO 713 (designed binder) MGSWYEFWDRLEAIEDRLWALGGSEAELAAFEKEIAAFESELQAYKGKGNPEVEFLRYSAAEIRYQLQAYRHN
6.4 ratio	SEQ ID NO 719 (designed binder) MGSWWEFHDRLEAIEDRLWALGGSEAELAAFEKEIAAFESELQAYKGKGNPEVEYLRIEAADIRRQLQAYRHN
6.3 ratio	SEQ ID NO 725 (designed binder) MGSWYEFEHRLDAIYDRLWALGGSEAELAAFEKEIAAFESELQAYKGKGNPEVEWLREEAAWIRLWLQAYRHN
3.7 ratio	SEQ ID NO 714 (designed binder) MGSWVEFESRLAAIEHRLWALGGSEAELAAFEKEIAAFESELQAYKGKGNPEVEELREYAAEIRDWLQAYRHN

More lines, now with the values behind:

Binder	ELISA_avg
SEQ ID NO 712 (designed binder) MGSWIEFEDRLYAIEDRLWALGGSEAELAAFEKEIAAFESELQAYKGKGNPEVEFLRYEAAEIRYWLQAYRHN	4 ratio
SEQ ID NO 680 (designed binder) MGSWTEFDMRLDAIWDRLFALGGSEAELAAFEKEIAAFESELQAYKGKGNPEVEELREEAATIRGVLQAYRHN	3.1 ratio
SEQ ID NO 710 (designed binder) MGSWFEFEDRLDAIWDRLWALGGSEAELAAFEKEIAAFESELQAYKGKGNPEVEFLRMDAAMIRYILQAYRHN	5.1 ratio
SEQ ID NO 696 (designed binder) MGSWWEFESRLDAIFMRLTALGGSEAELAAFEKEIAAFESELQAYKGKGNPEVEDLREDAAFIREFLQAYRHN	3.7 ratio
SEQ ID NO 687 (designed binder) MGSWVEFYDRLDAIEHRLDALGGSEAELAAFEKEIAAFESELQAYKGKGNPEVEWLRDEAAFIRDMLQAYRHN	3.4 ratio
SEQ ID NO 682 (designed binder) MGSWVEFRDRLDAIETRLWALGGSEAELAAFEKEIAAFESELQAYKGKGNPEVEWLRYEAAEIRMVLQAYRHN	4.2 ratio
SEQ ID NO 690 (designed binder) MGSWYEFMVRLDAIEERLFALGGSEAELAAFEKEIAAFESELQAYKGKGNPEVEFLREEAASIRYHLQAYRHN	4.1 ratio
SEQ ID NO 707 (designed binder) MGSWYEFEERLYAIEDRLYALGGSEAELAAFEKEIAAFESELQAYKGKGNPEVEFLRQEAADIRLMLQAYRHN	11.5 ratio
SEQ ID NO 681 (designed binder) MGSWEEFHDRLMAIETRLWALGGSEAELAAFEKEIAAFESELQAYKGKGNPEVEWLRYEAADIRDYLQAYRHN	4.3 ratio
SEQ ID NO 685 (designed binder) MGSWVEFYDRLYAIEVRLLALGGSEAELAAFEKEIAAFESELQAYKGKGNPEVEFLRQEAAEIRDWLQAYRHN	5.8 ratio
SEQ ID NO 679 (designed binder) MGSWTEFDRRLDAIWDRLFALGGSEAELAAFEKEIAAFESELQAYKGKGNPEVEWLREEAADIRDYLQAYRHN	9.2 ratio
SEQ ID NO 676 (designed binder) MGSWYEFDDRLEAIWDRLGALGGSEAELAAFEKEIAAFESELQAYKGKGNPEVEWLRETAADIRAELQAYRHN	3.3 ratio
SEQ ID NO 705 (designed binder) MGSWVEFWDRLWAIEDRLWALGGSEAELAAFEKEIAAFESELQAYKGKGNPEVEHLRHYAADIRVWLQAYRHN	4.5 ratio
SEQ ID NO 689 (designed binder) MGSWFEFLDRLDAIEERLWALGGSEAELAAFEKEIAAFESELQAYKGKGNPEVEWLREEAAVIRDSLQAYRHN	12.2 ratio
SEQ ID NO 708 (designed binder) MGSWTEFEWRLYAIEDRLMALGGSEAELAAFEKEIAAFESELQAYKGKGNPEVEFLRDEAADIRQYLQAYRHN	4.2 ratio
SEQ ID NO 686 (designed binder) MGSWYEFYDRLDAIEWRLWALGGSEAELAAFEKEIAAFESELQAYKGKGNPEVEWLRDEAAQIRDFLQAYRHN	6.2 ratio
SEQ ID NO 694 (designed binder) MGSWWEFLDRLDAIEMRLFALGGSEAELAAFEKEIAAFESELQAYKGKGNPEVEYLREEAALIRNMLQAYRHN	9 ratio
SEQ ID NO 695 (designed binder) MGSWWEFEDRLDAIEYRLFALGGSEAELAAFEKEIAAFESELQAYKGKGNPEVEFLREEAAFIRIFLQAYRHN	4.9 ratio
SEQ ID NO 711 (designed binder) MGSWEEFEDRLWAIEDRLWALGGSEAELAAFEKEIAAFESELQAYKGKGNPEVEILRYDAAYIREILQAYRHN	4.1 ratio
SEQ ID NO 684 (designed binder) MGSWTEFVWRLDAIEWRLEALGGSEAELAAFEKEIAAFESELQAYKGKGNPEVEFLREEAAEIRDWLQAYRHN	4.2 ratio
SEQ ID NO 706 (designed binder) MGSWYEFADRLWAIEDRLWALGGSEAELAAFEKEIAAFESELQAYKGKGNPEVEFLRYYAADIRWVLQAYRHN	4 ratio
SEQ ID NO 683 (designed binder) MGSWMEFIDRLDAIEHRLWALGGSEAELAAFEKEIAAFESELQAYKGKGNPEVEFLREEAAEIRMYLQAYRHN	4.3 ratio
SEQ ID NO 678 (designed binder) MGSWIEFEVRLDAIWDRLFALGGSEAELAAFEKEIAAFESELQAYKGKGNPEVEYLRDEAADIRQSLQAYRHN	4.2 ratio
SEQ ID NO 693 (designed binder) MGSWVEFEYRLDAITERLLALGGSEAELAAFEKEIAAFESELQAYKGKGNPEVEILREEAAFIRQWLQAYRHN	3.9 ratio
SEQ ID NO 709 (designed binder) MGSWIEFESRLWAIEDRLLALGGSEAELAAFEKEIAAFESELQAYKGKGNPEVEFLRLEAADIREDLQAYRHN	8.7 ratio
SEQ ID NO 688 (designed binder) MGSWFEFVDRLTAIQVRLWALGGSEAELAAFEKEIAAFESELQAYKGKGNPEVEYLREEAALIRYSLQAYRHN	5.1 ratio
SEQ ID NO 675 (designed binder) MGSWFEFEWRLDAIENRLNALGGSEAELAWFEYHIAAFEDSLQHYKGKGNPEVEALEWEAHAIQSELQAYRHN	3.3 ratio

Source: US20230125550A1 (ARCELLX, published 2023)
